Molecular target: T1, HLA-A*02:01 (peptide-receptive MHC class I monomer after UV cleavage of the UV-sensitive ligand) (human)
T1 construct: MHC monomers loaded by UV-ligand exchange and captured on streptavidin plates
Assay: UV ligand-exchange ELISA; exchange yield grade (+ >=10%, ++ >=20%, +++ >=50%, ++++ >=75%)
In short: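 UV-exchange pMHC monomers, 100-fold diluted → streptavidin capture 1 h 37 °C → HRP anti-β2m 2 ug/ml 1 h 37 °C → TMB, A450. Yield from HLA-A*02:01/MLA-001 monomer standard curve, 15-500 ng/ml. Only stably bound peptides keep β2m-containing complexes intact.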

Binder	peptide exchange yield
GLATIRAYL [GLATIRAYL (SEQ ID NO: 86)]	50 to 75%
GLFARIIMI [GLFARIIMI (SEQ ID NO: 87)]	20 to 50%
HLDEVFLEL [HLDEVFLEL (SEQ ID NO: 90)]	50 to 75%
FLIDGSSSV [FLIDGSSSV (SEQ ID NO: 82)]	50 to 75%
AMKEEKEQL [AMKEEKEQL (SEQ ID NO: 79)]	20 to 50%
ALLDVSNNYGI [ALLDVSNNYGI (SEQ ID NO: 77)]	≥ 75%
GLAPAEVVVATVA [GLAPAEVVVATVA (SEQ ID NO: 85)]	50 to 75%
GLTALHVAV [GLTALHVAV (SEQ ID NO: 89)]	50 to 75%
AMEEAVAQV [AMEEAVAQV (SEQ ID NO: 78)]	50 to 75%
FLLDLDPLL [FLLDLDPLL (SEQ ID NO: 9)]	50 to 75%
GLFDNRSGLPEA [GLFDNRSGLPEA (SEQ ID NO: 88)]	50 to 75%
ALADLVPVDVVV [ALADLVPVDVVV (SEQ ID NO: 76)]	≥ 75%
HLSSTTAQV [HLSSTTAQV (SEQ ID NO: 91)]	20 to 50%
FLMDDNMSNTL [FLMDDNMSNTL (SEQ ID NO: 83)]	50 to 75%
FIFSYITAV [FIFSYITAV (SEQ ID NO: 81)]	20 to 50%
ALYAVIEKA [ALYAVIEKA (SEQ ID NO: 8)]	50 to 75%
FLQELQLEHA [FLQELQLEHA (SEQ ID NO: 84)]	50 to 75%
AALKYIPSV [AALKYIPSV (SEQ ID NO: 75)]	50 to 75%

Now from value to binder:

peptide exchange yield	Binder
≥ 75%	KLLGSLQLL [KLLGSLQLL (SEQ ID NO: 93)]
50 to 75%	MLQDGIARL [MLQDGIARL (SEQ ID NO: 98)]
20 to 50%	QLYDGATALFL [QLYDGATALFL (SEQ ID NO: 99)]
≥ 75%	VLIEILQKA [VLIEILQKA (SEQ ID NO: 70)]
50 to 75%	LLLNENESLFL [LLLNENESLFL (SEQ ID NO: 96)]
50 to 75%	RLIRTIAAI [RLIRTIAAI (SEQ ID NO: 100)]
50 to 75%	LLFDLIPVVSV [LLFDLIPVVSV (SEQ ID NO: 95)]
20 to 50%	TLQEETAVYL [TLQEETAVYL (SEQ ID NO: 72)]
50 to 75%	YLFDEIDQA [YLFDEIDQA (SEQ ID NO: 80)]
≥ 75%	TLLAFPLLL [TLLAFPLLL (SEQ ID NO: 69)]
10 to 20%	LLNFSPGNL [LLNFSPGNL (SEQ ID NO: 97)]
≥ 75%	NLLGMIFSM [NLLGMIFSM (SEQ ID NO: 7)]
≥ 75%	QIAAFLFTV [QIAAFLFTV (SEQ ID NO: 68)]
50 to 75%	YLGEEYPEV [YLGEEYPEV (SEQ ID NO: 73)]
50 to 75%	KLLFEIASA [KLLFEIASA (SEQ ID NO: 92)]
≥ 75%	SLDLRPLEV [SLDLRPLEV (SEQ ID NO: 74)]
≥ 75%	VLLDYVGNVQL [VLLDYVGNVQL (SEQ ID NO: 71)]
50 to 75%	LLAGQATTAYF [LLAGQATTAYF (SEQ ID NO: 94)]
